Test results from paper PMC11305080.

Tests used:
[1] = molecular target: human proprotein convertase subtilisin/kexin type 9 (PCSK9) (human) (UniProt Q8NBP7); experiment: BLI
[2] = molecular target: HIT01-K21Q-R218E (cleavage-resistant variant of HIT01) (Pangasianodon hypophthalmus (iridescent shark) scaffold with human PCSK9 stretches); experiment: BLI

Kd [1]: 1.71 nM
Kd [2]: 2.78 nM
Substance: Alirocumab
